The values that follow come from US20260258115A1 (MAPP BIOPHARMACEUTICAL, published 2026).

Sequences and labels used below:
B1: ADI-19427 (antibody, V domains shown)
VH: EVQLVESGGGLVKPGGSLRLSCAASGFTFSSYSMNWVRQAPGKGLEWVSSISSSSSFISYADSVKGRFTISRDSAKNSLYLQMNSLRAEDTAVYYCARDHPNWNGLAYFDYWGQGTLVTVSS
VL: QSVLTQPPSISGAPGQRVTISCTGSSSNIGAGYDVQWHQQLPGTAPKLLIYGNSNRPSGVPDRFSGSKSGTSASLAITGLQAEDEADYYCQSYDSSLSGWVFGGGTKLTVL
notes: full-length IgG
B2: ADI-19431 (antibody, V domains shown)
VH: EVQLVESGGGLVKPGGSLRLSCAASGFTFSSYSMNWVRQAPGKGLEWVSSISSSSSYIYYADSVKGRFTISRDNAKNSLYLQMNSLRAEDTAVYYCARELYDYVWGSYRDYWGQGTLVTVSS
VL: B1 VL with S2P, V3G, I10V, Q36H, H38Y, W100S, L108V
notes: full-length IgG
B3: ADI-24859 (antibody, V domains shown)
VH: EVQLLESGGGLVKPGGSLRLSCAASGFTFSSYSMNWVRQAPGKGLEWVSSISSSSSYIYYADSVKGRFTISRDNAKNSLYLQMNSLRAEDTAVYYCARDGSPINWVSPFPFDYWGQGTLVTVSS
VL: B1 VL with S2P, I10V, Q36H, H38Y, W100S, K107Q
notes: full-length IgG; also called Ab 419
B4: ADI-25478 (antibody, V domains shown)
VH: EVQLLESGGGLVKPGGSLRLSCAASGFTFSSYSMNWVRQAPGKGLEWVSSISSSSSYIYYADSVKGRFTISRDNAKNSLYLQMNSLRAEDTAVYYCARLDYSNYYYYMDVWGKGTTVTVSS
VL: B1 VL with S2P, I10V, Q36H, H38Y, W100Y, G104T
notes: full-length IgG
B5: ADI-24799 (antibody, V domains shown)
VH: EVQLVESGGGLVKPGGSLRLSCAASGFTFSSYSMNWVRQAPGKGLEWVSSISSSSSYIYYADSVKGRFTISRDNAKNSLYLQMNSLRAEDTAVYYCAREGRDGYNYYFDYWGQGTLVTVSS
VL: B1 VL with I10V, Q36H, H38Y, W100S
notes: full-length IgG
B6: ADI-24812 (antibody, V domains shown)
VH: EVQLVESGGGLVQPGGSLRLSCAASGFSFSTYAMSWVRQAPGKGLEWVSAISGGGGSTYYADSVKGRFTISRDNSKNTLYLQVNSLRAEDTAVYYCARGGYCSSDSCYPFDFWGQGTLVTVSS
VL: QPVLTQPPSVSVSPGQTAMITCSGDALPKQYAYWYQQKPGQAPVLVIYKDSERPSGIPERFSGSSSGTTVTLTISGVQAEDEADYYCQSADNSGSYAVFGGGTQLTVL
notes: full-length IgG
B7: ADI-19448 (antibody, V domains shown)
VH: EVQLLESGGGLVKPGGSLRLSCAASGFTFSSYSMNWVRQAPGKGLEWVSSISSSSSYIYYADSVKGRFTISRDNAKNSLYLQMNSLRAEDTAVYYCARELLDPGIAAAGFDYWGQGTLVTVSS
VL: QSVLTQPPSVSGAPGQRVTISCTGSSSNIGAGYDVHWYQQLPGTAPKLLIYGNSNRPSGVPDRFSGSKSGTSASLAITGLQAEDEADYYCQSYDSSLSVNYVFGTGTKVTVL
notes: full-length IgG
B8: ADI-19428 (antibody, V domains shown)
VH: EVQLLESGGGLVKPGGSLRLSCAASGFTFSSYSMNWVRQAPGKGLEWVSSISSSSSYIYYADSVKGRFTISRDNAKNSLYLQMNSLRAEDTAVYYCARDSCSGGSCYSPRFDPWGQGTLVTVSS
VL: QSVLTQPPSVSGAPGQRVTISCTGSSSNIGAGYDVHWYQQLPGTAPKLLIYGNSNRPSGVPDRFSGSKSGTSASLAITGLQAEDEADYYCQSYDSTVVFGGGTKLTVL
notes: full-length IgG
B9: ADI-19494 (antibody, V domains shown)
VH: QVQLVQSGAEVKKPGSSVKVSCKASGGTFSSYVISWVRQAPGQGLEWMGGIIPIFGTTYYAQKFQDRVTITTDESTSTAYMELSSLRSEDTAVYYCARDLRYRYNAYDGADAFDIWGQGTTVTVSS
VL: QSALTQPASVSGSPGQSITISCTGTSSDVGGYNYVSWYQQHPGKAPKLMIFEVSNRPSGVSNRFSGSKSGNTASLTISGLQAEDEADYYCTSYTKSNSVVFGGGTKLTVL
notes: full-length IgG
B10: ADI-24827 (antibody, V domains shown)
VH: EVQLVESGGGLVQPGGSLRLSCAASGFTVSSNYMSWVRQAPGKGLEWVSVIYSDGSTYYADSVKGRFTISRHNSKNTLYLQMNSLRAEDTAVYYCARCSTYGDYIDWYFDLWGRGTLVTVSS
VL: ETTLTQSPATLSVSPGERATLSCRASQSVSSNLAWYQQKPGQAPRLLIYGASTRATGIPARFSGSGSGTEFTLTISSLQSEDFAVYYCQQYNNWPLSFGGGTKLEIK
notes: full-length IgG
B11: ADI-19459 (antibody, V domains shown)
VH: QVQLVESGGGLVQPGGSLRLSCAASGFTVSSNYMSWVRQAPGKGLEWVSVIYSGGSTYYADSVKGRFTISRDNSKNTLYLQMNSLRAEDTAVYYCAREALGMDHWYFDLWGRGTLVTVSS
VL: SYELMQPPSVSVAPGKTARITCGGNNIGSKSVHWYQQKPGQAPVLVVYDDSDRPSGIPERFSGSNSGNTATLTISRVEAGDEADYYCQVWDSSSDHPVFGGGTKVTVL
notes: full-length IgG
B12: ADI-14336 (antibody, V domains shown)
VH: EVQLLESGGEVKKPGASVKVSCKASGYTFTNYGISWVRQAPGQGLEWMGWISAYNGNTNYAQKLQGRVTMTTDTSTSTAYMEVRRLRSDDTAVYYCAREPPVIAAGDFQHWGQGTLVTVSS
VL: DIVMTQTPLSLPVTLGQPASISCRSSQSLVHSDTNIYLSWFQQRPGQSPRRLIYKVSNRDSGVPDRFSGSGSGTDFTLRISRVEAEDVGVYYCMQGTHWPPDFGQGTRLEIK
notes: full-length IgG; also called Ab 4
B13: ADI-14334 (antibody, V domains shown)
VH: EVQLVESGGGLVKPGGSLRLSCAASGVTVSSYYMTWVRQAPGKGLEFISDISSSSTYTNYADSVKGRFTISRDNAKSSLYLQMNNLRAEDTAVYYCARLGITVTGVGYFDLWGRGTLVTVSS
VL: QPGLTQPPSVSGAPGQRVTISCTGSSSNIGAGYDVHWYQQLPGTAPKLLIHDNNNRPSGVPDRFSGSKSGTSASLAITGLQVEDEADYYCQSYDSSLSNYVFGTGTKLTVL
notes: full-length IgG; also called Ab 2

Substitutions are numbered along the chain they refer to.

The target of the first assay is T1, RSV postfusion F (postF), subtype A (respiratory syncytial virus subtype A, UniProt P03420 26-513).
T1 construct: also called Postfusion subtype A; F deltaFP
In words: BLI.
Turning to B1, the binding result is reported as “no binding”.
For the molecule B2, the binding result was “no binding”.
Turning to B3, the binding result is “no binding”.
Consider B4, for which the binding result is “no binding”.
Turning to B5, the binding result is recorded as “no binding”.
On to B6, for which the binding result is reported as “no binding”.
Consider B7, for which the binding result is listed as “no binding”.
Consider B8, for which the binding result is “no binding”.
Regarding B9, the binding result is “no binding”.
Consider B10, for which the binding result was “no binding”.

Another assay has as its target T2, RSV prefusion F (preF), subtype B (respiratory syncytial virus subtype B).
T2 construct: also called Prefusion subtype B
Nature of the assay: BLI, IgG. (Biolayer interferometry detects binding as a change in optical thickness at a sensor tip.)
For the molecule B1, the Kd (usually the constant that tells how readily two partners part at equilibrium) is 0.5 nM. This counts as sub-nanomolar.
In the case of B2, the Kd was 3.16 nM.
On to B3, for which the Kd amounted to 4.95 nM.
The molecule B4 yielded a Kd of 6.43 nM.
B5 had an equilibrium dissociation constant (Kd) of 19 nM.
For B6, binding was characterised by a dissociation constant (Kd) of 7.58 nM. This Kd is about 2.5-fold lower than that of the molecule before.
B7 displayed a Kd of 5.58 nM.
As to B8, the Kd stood at 16.7 nM.
Molecule B11 registered a Kd of 1.45 nM.
The molecule B12 yielded a Kd of 2.65 nM.
With B13, the affinity, expressed as Kd, was 0.622 nM.
As for B10, the dissociation constant (Kd) stood at 6.62 nM.

The target of a further assay is RSV F on RSV subtype A virus (mKate-RSV A2) (respiratory syncytial virus A2, UniProt P03420 26-574). In words: cell-based or functional assay.
As to B1, the “Neut IC50 subtype A” value worked out at 0.01 µg/mL.
For the molecule B2, the “Neut IC50 subtype A” value turned out to be 4.35 µg/mL.
B3: the “Neut IC50 subtype A” value came to 0.58 µg/mL.
For B4, the “Neut IC50 subtype A” value stood at 2.18 µg/mL.
With B5, the “Neut IC50 subtype A” value is 11.5 µg/mL.
Turning to B6, the “Neut IC50 subtype A” value amounted to 0.18 µg/mL.
On to B7, for which the “Neut IC50 subtype A” value amounted to 9.64 µg/mL.
As for B8, the “Neut IC50 subtype A” value was found to be 3.25 µg/mL.
Consider B11, for which the “Neut IC50 subtype A” value was determined as 0.05 µg/mL.
B12: the “Neut IC50 subtype A” value came out at 0.07 µg/mL.
The same measure, in the same setting: the value for B9 was 0.86 µg/mL.
For B13, the “Neut IC50 subtype A” value was 0.05 µg/mL.
Regarding B10, the “Neut IC50 subtype A” value turned out to be 0.02 µg/mL.

The target of the next assay is RSV F on RSV subtype B virus (mKate-RSV B 18537) (respiratory syncytial virus B 18537, UniProt P13843 26-574). Nature of the assay: cell-based or functional assay.
Consider B1, for which the “Neut IC50 subtype B” value stood at 0.03 µg/mL.
B2: the “Neut IC50 subtype B” value was determined as 0.17 µg/mL.
On the same count and under the same terms, under B4 stands 3.52 µg/mL; under B11, 0.1 µg/mL; under B12, 0.09 µg/mL.
Take B13: the “Neut IC50 subtype B” value stood at 0.11 µg/mL.
